Measured values taken from patent US20160046678A1 (ZYNGENIA, published 2016).
Ends that are not written are not given here.

Molecular target: T1, Angiopoietin-2 (Ang2) (human, UniProt O15123 19-496, biotin label in Examples 22-24)
T1 construct: also called rhAng2; recombinant Ang2
T1 sequence (looked up): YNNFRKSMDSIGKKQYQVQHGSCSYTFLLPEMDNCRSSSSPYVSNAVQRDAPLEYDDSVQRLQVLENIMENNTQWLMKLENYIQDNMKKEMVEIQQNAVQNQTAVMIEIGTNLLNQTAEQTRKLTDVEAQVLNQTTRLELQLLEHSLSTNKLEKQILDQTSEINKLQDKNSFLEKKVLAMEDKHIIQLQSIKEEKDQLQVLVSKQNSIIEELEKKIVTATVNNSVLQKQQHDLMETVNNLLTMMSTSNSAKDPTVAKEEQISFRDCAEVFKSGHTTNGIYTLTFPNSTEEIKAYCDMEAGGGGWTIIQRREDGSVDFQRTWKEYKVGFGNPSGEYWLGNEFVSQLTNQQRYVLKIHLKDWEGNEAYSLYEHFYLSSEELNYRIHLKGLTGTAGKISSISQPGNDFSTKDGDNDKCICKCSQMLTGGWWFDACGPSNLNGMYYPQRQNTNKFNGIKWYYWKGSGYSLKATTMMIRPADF
Assay: ELISA, MRD-MBP fusions on rhAng2-coated wells; references L17D and Lm32 KtoS MBP fusions

fold higher affinity: > 10 fold
B1: 2xLm32 MRD-MBP fusion (other)
chain: MGAQTNFMPMDNDELLLYEQFILQQGLEGGSGSTASSGSGSSLGAQTNFMPMDNDELLLY
modifications: also: fused to maltose binding protein, MRD downstream of malE, two copies of Lm32
notes: also called Lm32 dimer; LM-2x-32; not shown: MRD inserted downstream of malE
